Several values for one entry are separate records, joined by “and”; a condition that tells them apart may be missing. Equal values may be shown once.
Legend:
[1] = molecular target: T1, recombinant human LAG-3-Fc (human, UniProt P18627 23-450); experiment: switchSENSE (Dynamic Biosensors); LAG3 alone on the surface, LAG3 channel
T1 construct: also called human LAG-3 (R&D Systems cat no. 2319-L3); LAG3 antigen
T1 sequence: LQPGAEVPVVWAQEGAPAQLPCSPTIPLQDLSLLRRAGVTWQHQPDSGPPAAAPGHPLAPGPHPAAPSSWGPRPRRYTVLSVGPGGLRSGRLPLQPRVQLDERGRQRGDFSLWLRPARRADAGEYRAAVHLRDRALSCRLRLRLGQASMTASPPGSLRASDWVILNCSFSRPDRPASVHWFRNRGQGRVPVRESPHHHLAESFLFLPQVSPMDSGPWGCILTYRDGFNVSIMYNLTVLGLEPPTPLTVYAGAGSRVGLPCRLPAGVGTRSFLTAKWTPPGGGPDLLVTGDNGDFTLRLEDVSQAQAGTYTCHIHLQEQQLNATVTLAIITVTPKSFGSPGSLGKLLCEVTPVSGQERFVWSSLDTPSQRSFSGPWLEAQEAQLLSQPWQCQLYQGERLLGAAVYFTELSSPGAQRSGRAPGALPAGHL
Method: (§1) The antigens were covalently attached to the biosensor surface using amine-coupling method, each antigen was linked to a different nanolever, with red or green fluorescent tag. Binding of a bispecific construct was measured to individual antigens alone or where both antigens were present on the surface simultaneously.

[2] = molecular target: T1, recombinant human LAG-3-Fc; experiment: switchSENSE; LAG3 and PD1 both on the surface, LAG3 channel (avidity)
Method: as §1

[3] = molecular target: T2, human LAG-3 expressed on cells (human, UniProt P18627 23-525); experiment: cell-based or functional assay
T2 sequence: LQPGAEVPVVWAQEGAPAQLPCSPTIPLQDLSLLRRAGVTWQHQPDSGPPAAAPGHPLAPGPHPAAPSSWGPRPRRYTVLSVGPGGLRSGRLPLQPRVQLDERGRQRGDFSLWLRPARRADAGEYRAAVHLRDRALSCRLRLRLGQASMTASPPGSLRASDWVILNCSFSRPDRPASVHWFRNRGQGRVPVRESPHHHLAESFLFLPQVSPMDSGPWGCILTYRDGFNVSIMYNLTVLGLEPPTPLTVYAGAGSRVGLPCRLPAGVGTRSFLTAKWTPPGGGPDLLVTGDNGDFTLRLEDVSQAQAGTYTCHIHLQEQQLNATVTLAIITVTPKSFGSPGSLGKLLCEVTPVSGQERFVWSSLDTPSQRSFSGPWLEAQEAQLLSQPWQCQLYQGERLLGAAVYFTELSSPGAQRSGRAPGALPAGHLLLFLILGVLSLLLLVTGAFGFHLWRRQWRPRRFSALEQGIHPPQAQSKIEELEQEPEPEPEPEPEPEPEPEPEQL

[4] = molecular target: human LAG-3 and human PD-1 co-expressed on the surface of cells (DiscoverX cell line) (human); experiment: cell-based or functional assay
human LAG-3 and human PD-1 co-expressed on the surface of cells (DiscoverX cell line) (human), sequence (Q15116 25-288): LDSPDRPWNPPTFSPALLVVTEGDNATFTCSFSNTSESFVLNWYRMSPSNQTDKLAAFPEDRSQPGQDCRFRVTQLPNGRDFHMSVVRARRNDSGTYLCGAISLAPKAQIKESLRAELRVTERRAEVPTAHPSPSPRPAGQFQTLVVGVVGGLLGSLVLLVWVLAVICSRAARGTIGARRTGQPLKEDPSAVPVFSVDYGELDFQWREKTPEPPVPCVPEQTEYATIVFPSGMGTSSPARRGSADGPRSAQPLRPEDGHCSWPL

[5] = molecular target: T3, Rhesus monkey LAG-3 (used as cynomolgus LAG-3) (Rhesus monkey (called cynomolgus in the …)); experiment: BLI (Octet); LAG3 antigen amine-coupled to ARG2 sensors
T3 construct: extracellular domain

[6] = molecular target: T1, recombinant human LAG-3-Fc; experiment: as above
[7] = molecular target: T4, human PD-1 expressed on cells (human, UniProt Q15116 25-288); experiment: cell-based or functional assay
T4 sequence (Q15116 25-288 limits assumed): as the sequence (Q15116 25-288) above

[8] = molecular target: T5, recombinant human PD-1 Fc chimera (human, UniProt Q15116 25-167); experiment: switchSENSE; LAG3 and PD1 both on the surface, PD1 channel (avidity)
T5 construct: Bought Fc chimera; also called human PD-1 (R&D systems cat no. 1086-PD); PD1 antigen
T5 sequence (Q15116 25-167 limits assumed, change not shown): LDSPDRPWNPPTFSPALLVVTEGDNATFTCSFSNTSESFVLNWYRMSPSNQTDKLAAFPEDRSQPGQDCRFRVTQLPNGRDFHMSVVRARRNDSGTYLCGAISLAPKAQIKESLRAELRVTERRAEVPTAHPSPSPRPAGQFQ
Method: as §1

[9] = molecular target: Cynomolgus PD1 (cynomolgus, UniProt B0LAJ3 25-170); experiment: BLI (Octet); PD1 antigen captured on Protein G sensors
Cynomolgus PD1, sequence (B0LAJ3 entry or part of it limits assumed): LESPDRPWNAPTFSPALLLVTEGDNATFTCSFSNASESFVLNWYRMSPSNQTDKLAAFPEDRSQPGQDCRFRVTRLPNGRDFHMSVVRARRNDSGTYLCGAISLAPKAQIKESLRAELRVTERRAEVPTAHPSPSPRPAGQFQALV

[10] = molecular target: T5, recombinant human PD-1 Fc chimera; experiment: as above
[11] = molecular target: T1, recombinant human LAG-3-Fc; experiment: switchSENSE; LAG3 and PD1 both on the surface, LAG3 channel (avidity); LAG3 and PD1 as ligand antigens, LAG3 detection channel
Method: as §1

[12] = molecular target: T5, recombinant human PD-1 Fc chimera; experiment: switchSENSE (Dynamic Biosensors); PD1 alone on the surface, PD1 channel
Method: as §1

[13] = molecular target: CTLA4 (Homo sapiens (Human), UniProt P16410 36-161); experiment: BLI (Octet)
CTLA4, sequence (P16410 36-161 limits assumed): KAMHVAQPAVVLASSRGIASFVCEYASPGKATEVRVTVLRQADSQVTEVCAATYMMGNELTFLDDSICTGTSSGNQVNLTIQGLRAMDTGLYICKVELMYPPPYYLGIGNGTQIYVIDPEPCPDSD

[14] = molecular target: CD28 (Homo sapiens (Human), UniProt P10747 19-152); experiment: BLI (Octet)
[15] = molecular target: T6, CD4 (UniProt P01730 26-390); experiment: BLI (Octet)
T6 construct: also called CD4 (R&D Biotechne 514-CD)

[16] = molecular target: T4, human PD-1 expressed on cells; experiment: cell-based or functional assay; remark: listed apart in the source
[17] = molecular target: T3, Rhesus monkey LAG-3 (used as cynomolgus …); experiment: BLI (Octet); cynomolgus LAG-3 immobilised on ARG2 sensors, 1:1 fit
Method: (§2) Binding kinetics for multi-valent and bispecific VH were also measured in real-time bio-layer interferometer based biosensor Octet (ForteBio). […] All the binding studies were performed in HBS-ET Octet kinetics buffer. Biosensors were washed in Octet kinetics buffer in between different steps. […] The contact time for each of the association steps was 150 seconds and the dissociation step was 400 seconds. […] To compare the constructs, kinetic association (kₐ) and dissociation (kd) rate constants were determined by processing and fitting the data to a 1:1 binding model using ForteBio Analysis software.

[18] = molecular target: T1, recombinant human LAG-3-Fc; experiment: competition ELISA; LAG-3-Fc pre-incubated with VH, binding to coated LSECtin
From the text: (§3) The plate was blocked with 3% Marvel skimmed milk powder in PBS. […] Wash steps were done 3 times with PBS 0.05% Tween. Colour was developed using TMB and 0.5M sulphuric acid solution.

[19] = molecular target: T1, recombinant human LAG-3-Fc; experiment: BLI (Octet); human LAG-3-Fc amine-coupled to biosensor, VH in solution, 1:1 fit
Method: Binding kinetics were measured in real-time bio-layer interferometer based biosensor Octet (ForteBio). […] All the binding studies were performed in HBS-ET Octet kinetics buffer. Biosensors were washed in Octet kinetics buffer in between different steps. A seven point, two-fold dilution series of each Humabody® VH was made with a top concentration of 1.6 μM. The contact time for each of the association steps was 150 seconds and the dissociation step was 300-400 seconds. Kinetic association (kₐ) and dissociation (kd) rate constants were determined by processing and fitting the data to a 1:1 binding model using ForteBio Analysis software.

[20] = molecular target: T2, human LAG-3 expressed on cells; experiment: FMAT (Mirrorball) binding to CHO human LAG-3 cells, anti-His detection
From the text: Plates were read in the FL2 (502 nm-537 nm) and FL5 (677-800 nm) channels on the TTP Mirrorball plate reader following excitation at 488 nm and 640 nm. Data was gated on FL5 perimeter and peak intensity and the FL2 median mean fluorescence intensity of the gated data used for determination of VH binding.

[21] = molecular target: T7, mouse LAG-3 (mouse, UniProt Q61790 24-442); experiment: ELISA, coated antigen, anti-HIS HRP detection
T7 construct: The construct is not described; also called mouse LAG-3 (Sino Biological cat no 53069-M02H); Mouse LAG3 (R&D Biotechne cat 3328-L3)
T7 sequence (looked up): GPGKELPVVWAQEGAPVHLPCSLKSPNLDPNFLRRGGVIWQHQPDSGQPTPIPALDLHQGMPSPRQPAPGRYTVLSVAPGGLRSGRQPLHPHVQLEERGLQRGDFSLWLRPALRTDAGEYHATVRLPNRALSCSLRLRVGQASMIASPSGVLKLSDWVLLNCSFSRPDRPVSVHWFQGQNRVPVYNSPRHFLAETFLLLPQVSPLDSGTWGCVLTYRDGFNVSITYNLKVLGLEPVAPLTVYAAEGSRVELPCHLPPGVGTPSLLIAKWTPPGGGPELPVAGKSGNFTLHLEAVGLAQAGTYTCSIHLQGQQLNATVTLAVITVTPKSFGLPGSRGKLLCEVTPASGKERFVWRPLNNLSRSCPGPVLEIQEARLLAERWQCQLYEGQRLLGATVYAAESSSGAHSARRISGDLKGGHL
Method: (§4) To screen specificity by ELISA, antigens were coated at 1-5 ug/ml and blocked with Marvel milk powder. VH were added at 10 μg/ml and incubated for 1 hour. After washing, HRP-conjugated anti-HIS antibody (Miltenyi cat no. 130-092-785) was added. TMB substrate and acidic solution were used to develop colorimetric signal.

[22] = molecular target: T6, CD4; experiment: ELISA, coated antigen, anti-HIS HRP detection
Method: as §4

[23] = molecular target: T3, Rhesus monkey LAG-3 (used as cynomolgus …); experiment: ELISA, coated antigen, VH at 10 µg/ml, anti-HIS HRP
Method: as §4

[24] = molecular target: T1, recombinant human LAG-3-Fc; experiment: as above
Method: as §4

[25] = molecular target: T8, human LAG-3 domains 1-2-Fc (human, UniProt P18627 23-261, limits assumed); experiment: as above
T8 construct: Domains were identified as per Huard et al 1997 PNAS 94:5744-9; also called truncated LAG-3
T8 sequence: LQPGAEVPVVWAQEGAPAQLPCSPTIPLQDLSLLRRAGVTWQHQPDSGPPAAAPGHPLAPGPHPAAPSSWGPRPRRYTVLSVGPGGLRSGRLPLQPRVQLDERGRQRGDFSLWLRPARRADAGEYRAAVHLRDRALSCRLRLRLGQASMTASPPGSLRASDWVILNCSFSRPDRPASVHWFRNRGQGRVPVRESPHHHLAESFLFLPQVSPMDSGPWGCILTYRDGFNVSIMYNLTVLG
Method: as §4

[26] = molecular target: T8, human LAG-3 domains 1-2-Fc; experiment: BLI (Octet); human LAG-3 domains 1-2-Fc captured on protein G biosensors, 1:1 fit
Method: as §2

[27] = molecular target: T1, recombinant human LAG-3-Fc; experiment: BLI (Octet); human LAG-3-Fc captured on protein G biosensors, 1:1 fit
Method: as §2

[28] = molecular target: T1, recombinant human LAG-3-Fc; experiment: competition ELISA; LAG-3-Fc pre-incubated with VH, binding to coated alpha-synuclein
From the text: as §3

B1: VH1.2-6GS-VH1.2-6GS-VH2.92-His6 (bispecific antibody)
chain: EVQLVESGGGVVRPGGSLRLSCAASGFTFDDYGMSWVRQAPGKGLEWVSGIHWNGGSTGYADSVKGRFTISRDNAKNSLYLQMNSLRAEDTALYYCARIPREDCSSASCYTDAIDFWGQGTMVTVSSGGGGSGGGGSGGGGSGGGGSGGGGSGGGGSEVQLVESGGGVVRPGGSLRLSCAASGFTFDDYGMSWVRQAPGKGLEWVSGIHWNGGSTGYADSVKGRFTISRDNAKNSLYLQMNSLRAEDTALYYCARIPREDCSSASCYTDAIDFWGQGTMVTVSSGGGGSGGGGSGGGGSGGGGSGGGGSGGGGSEVQLVESGGGLVKPGGSLRLSCAASGFTFSDESMTWMRQAPGKGLEWVSYISSGGGVKFYADSVKGRFTISRDNAKNSLYLQMNSLRAEDTAVYYCAREAPLRLGESPHDAFDISGQGTMVTVSSAAAHHHHHH
notes: 259 is the same construct without the tag; also called 1.2-6GS-1.2-6GS-2.92; the bispecific
Kd [1]: 1.4 nM | koff [1]: 0.000674 s⁻¹ | kon [1]: 483000 M⁻¹ s⁻¹ | Kd [2]: 0.0207 nM | EC50 (M), NFAT-Luciferase Reporter Gene assay (LAG-3:MHCII) [3]: 5.9e-09 M | EC50 (M) (n = 2), enzyme fragment complementation on LAG-3/PD-1 cells [4]: 5.5e-11 M and 7.6e-11 M | Kd [5]: 1.32 nM | koff [5]: 0.000184 s⁻¹ | kon [5]: 140000 M⁻¹ s⁻¹ | Kd [6]: 1.42 nM | koff [6]: 0.000206 s⁻¹ | kon [6]: 145000 M⁻¹ s⁻¹ | potency in the PD-1:PD-L1 NFAT-luciferase reporter assay, fold lower than monoclonal antibodies [7]: > 30 fold | Kd [8]: 0.041 nM | koff [8]: 8.67e-05 s⁻¹ | kon [8]: 2.12e+06 M⁻¹ s⁻¹ | Kd [9]: 4.36 nM | koff [9]: 0.000685 s⁻¹ | kon [9]: 157000 M⁻¹ s⁻¹ | Kd [10]: 2.94 nM | koff [10]: 0.000665 s⁻¹ | kon [10]: 226000 M⁻¹ s⁻¹ | koff [11]: 7.51e-05 s⁻¹ | kon [11]: 3.62e+06 M⁻¹ s⁻¹ | Kd [12]: 4.4 nM | koff [12]: 0.000488 s⁻¹ | kon [12]: 110000 M⁻¹ s⁻¹ | binding result [13]: no binding | binding result [14]: no binding | binding result [15]: no binding | EC50 (M), NFAT-Luciferase Reporter Gene assay (PD-1:PD-L1) [16]: 4.6e-08 M

B2: VH 1.1 (VHH)
VHH: EVQLVESGGGVVRPGGSLRLSCSASGFTFDDYGMSWVRQAPGKGLEWVSGIHWNGGNSGYADSVKGRFTISRDNAKNSLYLQMNSLRAEDTALYYCARIPREDCSSASCYTDAIDFWGPGTMVTVSS
notes: Human VH single domain antibody (Humabody) against LAG-3; also called VH single domain antibody 1.1; monovalent LAG-3 VH 1.1
Kd [17]: 25.6 nM | koff [17]: 0.000222 s⁻¹ | kon [17]: 8650 M⁻¹ s⁻¹ | IC50 [18]: 210 nM | Kd [19]: 31.3 nM | koff [19]: 0.00089 s⁻¹ | kon [19]: 26200 M⁻¹ s⁻¹ | EC50 [20]: 1.8 nM | binding result [21]: no binding (tested: 10 µg/ml VH) | binding result [22]: no binding (tested: 10 µg/ml VH) | ELISA signal over background [23]: > 10 fold over background | ELISA signal over background [24]: > 10 fold over background | ELISA signal over background [25]: > 10 fold over background | EC50 (M), NFAT-Luciferase Reporter Gene assay (LAG-3:MHCII) [3]: > 3.3e-07 M | Kd [26]: 67.5 nM | koff [26]: 0.0011 s⁻¹ | kon [26]: 16200 M⁻¹ s⁻¹ | Kd [27]: 32.6 nM | koff [27]: 0.000905 s⁻¹ | kon [27]: 27800 M⁻¹ s⁻¹ | IC50 [28]: 45 nM

Source: US20210015937A1 (CRESCENDO BIOLOGICS, published 2021)
